Measured values published in patent US20220153862A1 (CSPC MEGALITH BIOPHARMACEUTICAL, published 2022).

B1: HC2/LC5 (antibody, human IgG1, kappa, V domains shown)
VH: QVQLVQSGAEVKKPGASVKVSCKASGYTFTDYSINWVRQAPGQGLEWMGVISTYYGDASYNQKFKGRVTMTRDTSTSTVYMELSSLRSEDTAVYYCARYGDGYNQFDYWGQGTLVTVSS
VL: DIQMTQSPSSLSASVGDRVTITCRVSESVDSYGNNFMHWYQQKPGKAPKLLIYRASNLESGVPSRFSGSGSGTDFTFTISSLQPEDIATYYCQQSYEDPYTFGGGTKLEIKR
notes: Humanized anti-TROP2 antibody
B2: HC3/LC5 (antibody, human IgG1, kappa, V domains shown)
VH: QVQLVQSGAEVKKPGASVKVSCKASGYTFTDYSINWVRQAPGQRLEWMGVISTYYGDASYNQKFKGRVTITRDTSASTAYMELSSLRSEDTAVYYCARYGDGYNQFDYWGQGTLVTVSS
VL: DIQMTQSPSSLSASVGDRVTITCRVSESVDSYGNNFMHWYQQKPGKAPKLLIYRASNLESGVPSRFSGSGSGTDFTFTISSLQPEDIATYYCQQSYEDPYTFGGGTKLEIKR
notes: Humanized anti-TROP2 antibody
B3: HC2/LC1 (antibody, human IgG1, kappa, V domains shown)
VH: QVQLVQSGAEVKKPGASVKVSCKASGYTFTDYSINWVRQAPGQGLEWMGVISTYYGDASYNQKFKGRVTMTRDTSTSTVYMELSSLRSEDTAVYYCARYGDGYNQFDYWGQGTLVTVSS
VL: DIVMTQSPDSLAVSLGERATINCRVSESVDSYGNNFMHWYQQKPGQPPKLLIYRASNLESGVPDRFSGSGSGTDFTLTISSLQAEDVAVYYCQQSYEDPYTFGQGTKLEIKR
notes: Humanized anti-TROP2 antibody
B4: HC3/LC1 (antibody, human IgG1, kappa, V domains shown)
VH: QVQLVQSGAEVKKPGASVKVSCKASGYTFTDYSINWVRQAPGQRLEWMGVISTYYGDASYNQKFKGRVTITRDTSASTAYMELSSLRSEDTAVYYCARYGDGYNQFDYWGQGTLVTVSS
VL: DIVMTQSPDSLAVSLGERATINCRVSESVDSYGNNFMHWYQQKPGQPPKLLIYRASNLESGVPDRFSGSGSGTDFTLTISSLQAEDVAVYYCQQSYEDPYTFGQGTKLEIKR
notes: Humanized anti-TROP2 antibody
B5: HC4/LC1 (antibody, human IgG1, kappa, V domains shown)
VH: QVQLVQSGAEVKKPGSSVKVSCKASGYTFTDYSINWVRQAPGQGLEWMGVISTYYGDASYNQKFKGRVTITADESTSTAYMELSSLRSEDTAVYYCARYGDGYNQFDYWGQGTLVTVSS
VL: DIVMTQSPDSLAVSLGERATINCRVSESVDSYGNNFMHWYQQKPGQPPKLLIYRASNLESGVPDRFSGSGSGTDFTLTISSLQAEDVAVYYCQQSYEDPYTFGQGTKLEIKR
notes: Humanized anti-TROP2 antibody
B6: HC5/LC5 (antibody, human IgG1, kappa, V domains shown)
VH: EVQLVQSGAEVKKPGESLKISCKGSGYTFTDYSINWVRQMPGKGLEWMGVISTYYGDASYNQKFKGQVTISADKSISTAYLQWSSLKASDTAMYYCARYGDGYNQFDYWGQGTLVTVSS
VL: DIQMTQSPSSLSASVGDRVTITCRVSESVDSYGNNFMHWYQQKPGKAPKLLIYRASNLESGVPSRFSGSGSGTDFTFTISSLQPEDIATYYCQQSYEDPYTFGGGTKLEIKR
notes: Humanized anti-TROP2 antibody
B7: HC5/LC3 (antibody, human IgG1, kappa, V domains shown)
VH: EVQLVQSGAEVKKPGESLKISCKGSGYTFTDYSINWVRQMPGKGLEWMGVISTYYGDASYNQKFKGQVTISADKSISTAYLQWSSLKASDTAMYYCARYGDGYNQFDYWGQGTLVTVSS
VL: DIVMTQSPLSLPVTPGEPASISCRVSESVDSYGNNFMHWYLQKPGQSPQLLIYRASNLESGVPDRFSGSGSGTDFTLKISRVEAEDVGVYYCQQSYEDPYTFGGGTKVEIKR
notes: Humanized anti-TROP2 antibody
B8: HC5/LC2 (antibody, human IgG1, kappa, V domains shown)
VH: EVQLVQSGAEVKKPGESLKISCKGSGYTFTDYSINWVRQMPGKGLEWMGVISTYYGDASYNQKFKGQVTISADKSISTAYLQWSSLKASDTAMYYCARYGDGYNQFDYWGQGTLVTVSS
VL: DVVMTQSPLSLPVTLGQPASISCRVSESVDSYGNNFMHWFQQRPGQSPRRLIYRASNLESGVPDRFSGSGSGTDFTLKISRVEAEDVGVYYCQQSYEDPYTFGGGTKVEIKR
notes: Humanized anti-TROP2 antibody
B9: HC4/LC2 (antibody, human IgG1, kappa, V domains shown)
VH: QVQLVQSGAEVKKPGSSVKVSCKASGYTFTDYSINWVRQAPGQGLEWMGVISTYYGDASYNQKFKGRVTITADESTSTAYMELSSLRSEDTAVYYCARYGDGYNQFDYWGQGTLVTVSS
VL: DVVMTQSPLSLPVTLGQPASISCRVSESVDSYGNNFMHWFQQRPGQSPRRLIYRASNLESGVPDRFSGSGSGTDFTLKISRVEAEDVGVYYCQQSYEDPYTFGGGTKVEIKR
notes: Humanized anti-TROP2 antibody
B10: HC2/LC3 (antibody, human IgG1, kappa, V domains shown)
VH: QVQLVQSGAEVKKPGASVKVSCKASGYTFTDYSINWVRQAPGQGLEWMGVISTYYGDASYNQKFKGRVTMTRDTSTSTVYMELSSLRSEDTAVYYCARYGDGYNQFDYWGQGTLVTVSS
VL: DIVMTQSPLSLPVTPGEPASISCRVSESVDSYGNNFMHWYLQKPGQSPQLLIYRASNLESGVPDRFSGSGSGTDFTLKISRVEAEDVGVYYCQQSYEDPYTFGGGTKVEIKR
notes: Humanized anti-TROP2 antibody
B11: HC1/LC3 (antibody, human IgG1, kappa, V domains shown)
VH: QVQLVQSGAEVKKPGASVKVSCKASGYTFTDYSINWVRQAPGQGLEWMGVISTYYGDASYNQKFKGRVTMTTDTSTSTAYMELRSLRSDDTAVYYCARYGDGYNQFDYWGQGTMVTVSS
VL: DIVMTQSPLSLPVTPGEPASISCRVSESVDSYGNNFMHWYLQKPGQSPQLLIYRASNLESGVPDRFSGSGSGTDFTLKISRVEAEDVGVYYCQQSYEDPYTFGGGTKVEIKR
notes: Humanized anti-TROP2 antibody
B12: HC2/LC2 (antibody, human IgG1, kappa, V domains shown)
VH: QVQLVQSGAEVKKPGASVKVSCKASGYTFTDYSINWVRQAPGQGLEWMGVISTYYGDASYNQKFKGRVTMTRDTSTSTVYMELSSLRSEDTAVYYCARYGDGYNQFDYWGQGTLVTVSS
VL: DVVMTQSPLSLPVTLGQPASISCRVSESVDSYGNNFMHWFQQRPGQSPRRLIYRASNLESGVPDRFSGSGSGTDFTLKISRVEAEDVGVYYCQQSYEDPYTFGGGTKVEIKR
notes: Humanized anti-TROP2 antibody
B13: HC3/LC2 (antibody, human IgG1, kappa, V domains shown)
VH: QVQLVQSGAEVKKPGASVKVSCKASGYTFTDYSINWVRQAPGQRLEWMGVISTYYGDASYNQKFKGRVTITRDTSASTAYMELSSLRSEDTAVYYCARYGDGYNQFDYWGQGTLVTVSS
VL: DVVMTQSPLSLPVTLGQPASISCRVSESVDSYGNNFMHWFQQRPGQSPRRLIYRASNLESGVPDRFSGSGSGTDFTLKISRVEAEDVGVYYCQQSYEDPYTFGGGTKVEIKR
notes: Humanized anti-TROP2 antibody
B14: HC3/LC3 (antibody, human IgG1, kappa, V domains shown)
VH: QVQLVQSGAEVKKPGASVKVSCKASGYTFTDYSINWVRQAPGQRLEWMGVISTYYGDASYNQKFKGRVTITRDTSASTAYMELSSLRSEDTAVYYCARYGDGYNQFDYWGQGTLVTVSS
VL: DIVMTQSPLSLPVTPGEPASISCRVSESVDSYGNNFMHWYLQKPGQSPQLLIYRASNLESGVPDRFSGSGSGTDFTLKISRVEAEDVGVYYCQQSYEDPYTFGGGTKVEIKR
notes: Humanized anti-TROP2 antibody
B15: HC4/LC3 (antibody, human IgG1, kappa, V domains shown)
VH: QVQLVQSGAEVKKPGSSVKVSCKASGYTFTDYSINWVRQAPGQGLEWMGVISTYYGDASYNQKFKGRVTITADESTSTAYMELSSLRSEDTAVYYCARYGDGYNQFDYWGQGTLVTVSS
VL: DIVMTQSPLSLPVTPGEPASISCRVSESVDSYGNNFMHWYLQKPGQSPQLLIYRASNLESGVPDRFSGSGSGTDFTLKISRVEAEDVGVYYCQQSYEDPYTFGGGTKVEIKR
notes: Humanized anti-TROP2 antibody
B16: HC2/LC4 (antibody, human IgG1, kappa, V domains shown)
VH: QVQLVQSGAEVKKPGASVKVSCKASGYTFTDYSINWVRQAPGQGLEWMGVISTYYGDASYNQKFKGRVTMTRDTSTSTVYMELSSLRSEDTAVYYCARYGDGYNQFDYWGQGTLVTVSS
VL: EIVLTQSPATLSLSPGERATLSCRVSESVDSYGNNFMHWYQQKPGQAPRLLIYRASNLESGIPARFSGSGSGTDFTLTISSLEPEDFAVYYCQQSYEDPYTFGGGTKVEIKR
notes: Humanized anti-TROP2 antibody
B17: HC1/LC4 (antibody, human IgG1, kappa, V domains shown)
VH: QVQLVQSGAEVKKPGASVKVSCKASGYTFTDYSINWVRQAPGQGLEWMGVISTYYGDASYNQKFKGRVTMTTDTSTSTAYMELRSLRSDDTAVYYCARYGDGYNQFDYWGQGTMVTVSS
VL: EIVLTQSPATLSLSPGERATLSCRVSESVDSYGNNFMHWYQQKPGQAPRLLIYRASNLESGIPARFSGSGSGTDFTLTISSLEPEDFAVYYCQQSYEDPYTFGGGTKVEIKR
notes: Humanized anti-TROP2 antibody
B18: HC3/LC4 (antibody, human IgG1, kappa, V domains shown)
VH: QVQLVQSGAEVKKPGASVKVSCKASGYTFTDYSINWVRQAPGQRLEWMGVISTYYGDASYNQKFKGRVTITRDTSASTAYMELSSLRSEDTAVYYCARYGDGYNQFDYWGQGTLVTVSS
VL: EIVLTQSPATLSLSPGERATLSCRVSESVDSYGNNFMHWYQQKPGQAPRLLIYRASNLESGIPARFSGSGSGTDFTLTISSLEPEDFAVYYCQQSYEDPYTFGGGTKVEIKR
notes: Humanized anti-TROP2 antibody
B19: HC4/LC4 (antibody, human IgG1, kappa, V domains shown)
VH: QVQLVQSGAEVKKPGSSVKVSCKASGYTFTDYSINWVRQAPGQGLEWMGVISTYYGDASYNQKFKGRVTITADESTSTAYMELSSLRSEDTAVYYCARYGDGYNQFDYWGQGTLVTVSS
VL: EIVLTQSPATLSLSPGERATLSCRVSESVDSYGNNFMHWYQQKPGQAPRLLIYRASNLESGIPARFSGSGSGTDFTLTISSLEPEDFAVYYCQQSYEDPYTFGGGTKVEIKR
notes: Humanized anti-TROP2 antibody

Target: T1, human Trophoblast cell surface antigen 2 (TROP2) (human, UniProt P09758 27-274, limits assumed)
T1 construct: Analyte in the SPR experiments and immunogen; also called human TROP2
T1 sequence: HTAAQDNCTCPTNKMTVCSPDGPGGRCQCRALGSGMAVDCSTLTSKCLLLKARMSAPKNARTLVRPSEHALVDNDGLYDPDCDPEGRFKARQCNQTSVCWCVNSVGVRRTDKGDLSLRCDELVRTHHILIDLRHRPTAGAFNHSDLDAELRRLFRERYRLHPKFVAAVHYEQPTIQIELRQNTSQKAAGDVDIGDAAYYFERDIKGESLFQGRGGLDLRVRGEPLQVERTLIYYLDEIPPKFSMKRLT
Assay: SPR affinity ranking, human TROP2

| Binder | Kd [nM] | koff [s⁻¹] | kon [M⁻¹ s⁻¹] |
| --- | --- | --- | --- |
| B1 | 0.052 | 7.38e-05 | 1.42e+06 |
| B2 | 0.114 | 0.000151 | 1.32e+06 |
| B3 | 0.0375 | 5.78e-05 | 1.54e+06 |
| B4 | 0.067 | 0.00011 | 1.65e+06 |
| B5 | 0.0457 | 7.74e-05 | 1.69e+06 |
| B6 | 0.238 | 0.000338 | 1.42e+06 |
| B7 | 0.182 | 0.000266 | 1.46e+06 |
| B8 | 1.54 | 0.000402 | 261000 |
| B9 | 5.34 | 0.000984 | 184000 |
| B10 | 0.104 | 0.000141 | 1.36e+06 |
| B11 | 0.121 | 0.000196 | 1.62e+06 |
| B12 | 865 | 0.0251 | 24900 |
| B13 | 10.4 | 0.00177 | 169000 |
| B14 | 0.107 | 0.000159 | 1.49e+06 |
| B15 | 0.0916 | 0.000178 | 1.95e+06 |
| B16 | 0.0957 | 0.00014 | 1.46e+06 |
| B17 | 0.0911 | 0.000126 | 1.38e+06 |
| B18 | 0.14 | 0.000192 | 1.37e+06 |
| B19 | 0.052 | 8.88e-05 | 1.71e+06 |
